{"source": "the DeepSol protein solubility set", "data": [{"test": "soluble on expression in E. coli; label from the status in PepcDB or PDB records", "values": [{"sequence": "MRGLAVLVLLVFAVQVAAAEDFRPVVFVHGLAGSAGQFESQGMRFAANGYPAEYVKTFEYDTISWALVVETDMLFSGLGSEFGLNISQIIDPETLDKILSKSRERLIDETFSRLDRVIDEALAESGADKVDLVGHSMGTFFLVRYVNSSPERAAKVAHLILLDGVWGVDAPEGIPTLAVFGNPKALPALGLPEEKVVYNATNVYFNNMTHVQLCTSPETFAVMFEFINGYKPATTDIVPQDGDYVKVKGKFLAFATNGDVSGWLSIYPIDENGKRLTRLPVKFMRVKGDFEVRLRKGQLYEFQFRKDFSPIIYHYYRAPFVRDDLWARFLVSKPPLDVELLILPERLSPAAKETSGLLLIRYKEMIGEYDEEIGGVDEVYVNGVNVCTERICPIERAVNGLWVFDRGADGKSDLDREVVRYSIMPFMSAADLVVPAEGTISIAVKSRTGGEESFTIPAWSADRHSIIVQFSDYI", "soluble on expression in E. coli": "not soluble"}, {"sequence": "MRVAVDAMGGDNAPAVEVEGAVVAAREFGIPITLVGDTEKLRLELAKHNVQGLDIAIHHASEVVGMHDAASDAVRRKKDSSIRVAFDLVKSGEAEAVVSAGNSGATMAAGMFVLKRLKGIDRPAIAQIFPTLRGKTLVLDVGGNVDCKPIHLVQFAIMGEVYARHVIGVEQPRIGLLSNGEEDSKGNELTRETNAILKNISFDYEGYVEGRDIFNGMVDVVVCDGFVGNVVLKLSEGLAETVGKMLREEIASSLLSKLGYLFVRKAFKNFKKKVDYAEYGGAPLIGINGVAMICHGGSNVKAIKNAIHFAHEYVRKGVNQRLAEKMETEFTAYMQQFDAVKEAVAG", "soluble on expression in E. coli": "not soluble"}, {"sequence": "MGSSHHHHHHSSGLVPRGSHMAPTEIKPEDDILGRARVRDTPELEAYYDDLAKIETGALWTVANDIEPWEPTPKSAPVHWKWSDLRREVLRAIDLVRPEDAGRRVVYLRNPQRKDVSAACGWLFSGIQTMKAGERAGAHRHAASALRFIMEGSGAYTIVDGHKVELGANDFVLTPNGTWHEHGILESGTECIWQDGLDIPLTNCLEANFYEVHPNDYQTTDIPLNDSPLTYGGPALLPQLDKWDKPYSPLLKYSWEPTYEALLNYAKASDGSPYDGLILRYTNPQTGGHPMLTMGASMQMLRPGEHTKAHRHTGNVIYNVAKGQGYSIVGGKRFDWSEHDIFCVPAWTWHEHCNTQERDDACLFSFNDFPVMEKLGFWAEQALEDNGGHQIVAD", "soluble on expression in E. coli": "soluble"}, {"sequence": "SDLDLLDLNPRIIAAIKKAKLKSVKEVLHFSGPDLKRLTNLSSPEVWHLLRTASLHLRGSSILTALQLHQQKERFPTQHQRLSLGCPVLDALLRGGLPLDGITELAGRSSAGKTQLALQLCLAVQFPRQHGGLEAGAVYICTEDAFPHKRLQQLMAQQPRLRTDVPGELLQKLRFGSQIFIEHVADVDTLLECVNKKVPVLLSRGMARLVVIDSVAAPFRCEFDSQASAPRARHLQSLGATLRELSSAFQSPVLCINQVTEAMEEQGAAHGPLGFWDERVSPALGITWANQLLVRLLADRLREEEAALGCPARTLRVLSAPHLPPSSCSYTISAEGVRGTPGTQSH", "soluble on expression in E. coli": "soluble"}, {"sequence": "RLHRLPRDCQELFQVGERQSGLFEIQPQGSPPFLVNCKMTSDGGWTVIQRRHDGSVDFNRPWEAYKAGFGDPHGEFWLGLEKVHSITGDRNSRLAVQLRDWDGNAELLQFSVHLGGEDTAYSLQLTAPVAGQLGATTVPPSGLSVPFSTWDQDHDLRRDKNCAKSLSGGWWFGTCSHSNLNGQYFRSIPQQRQKLKKGIFWKTWRGRYYPLQATTMLIQPMAAEAAS", "soluble on expression in E. coli": "soluble"}, {"sequence": "MGSDKIHHHHHHMEKYSAESIKVLKGLEPVRMRPGMYIGSTGKRGLHHLVYEVVDNSVDEALAGYCDWIRVTLHEDGSVEVEDNGRGIPVDIHPEEGRSALEVVFTVLHAGGKFSKDSYKISGGLHGVGVSVVNALSEWLEVRVHRDGKIYRQRYERGKPVTPVEVIGETDKHGTIVRFKPDPLIFSETEFDPDILEHRLREIAFLVPGLKIEFEDRINGEKKTFKFDGGIVEYVKYLNRGKKALHDVIHIKRTEKVKTKNGEDEVIVEIAFQYTDSYSEDIVSFANTIKTVDGGTHVTAFKSTLTRLMNEYGKKHNFLKKDDSFQGEDVREGLTAVISVYVKNPEFEGQTKSKLGNEEVKEAVTKAMREELKKIFDANPELVKTILSKIMSTKQAREAAKRAREMVRRKNVLQNTTLPGKLADCSSTHREKTELFIVEGDSAGGSAKQARDREFQAVLPIRGKILNVEKSSLDRLLKNEQISDIIVAVGTGIGDDFDESKLRYGRIIIMTDADIDGAHIRTLLLTLFYRYMRPLIEQGRVYIALPPLYRIKAGREEFYVYSDQELAEYKEKLQGKRIEIQRYKGLGEMNPEQLWETTMNPETRKIIRVTIEDAEEADRLFEILMGNDPSSRREFIERHALKVKELDI", "soluble on expression in E. coli": "not soluble"}, {"sequence": "MSVWASRLKAMGLLENLLNRYTPRTSGTPVFAVIDTGTTGFNKRYDHIIELAAVRADAYFKPVDSWHALLNPDTNAVSTTRGTPPPTSALNPAVGVTRSEAS", "soluble on expression in E. coli": "not soluble"}]}]}
